Substitutions are numbered along the chain they refer to. In names and notes the source's numbering stands.
B1: native TbpB N-lobe from Actinobacillus pleuropneumoniae strain H49, fusion protein with N-terminal maltose binding protein and polyhistidine tag (receptor)
chain: CSGGKGSFDLEDVRPNKTTGVSKEEYKDVETAKKEKEQLGELMEPALGYVVKVPVSSFENKKVDISDIEVITNGNLDDVPYKANSSKYNYPDIKTKDSSLQYVRSGYVIDGEHSGSNEKGYVYYKGNSPAKELPVNQLLTYTGSWDFTSNANLNNEEGRPNYLNDDYYTKFIGKRVGLVSGDAKPAKHKYTSQFEVDFATKKMTGKLSDKEKTIYTVNADIRGNRFTGAATASDKNKGKGESYNFFSADSQSLEGGFYGPKAEEMAGKFVANDKSLFAVF
notes: also called Mbp-TbpB N-lobe; native h49 TbpB N-lobe; not shown: N-terminal polyhistidine region of the custom expression vector; TEV (tobacco etch virus) cleavage site
B2: engineered (loop-reduced) TbpB N-lobe from Actinobacillus pleuropneumoniae strain H87, fusion protein with N-terminal maltose binding protein and polyhistidine … (receptor)
chain: GSKLMEPALGYVTKIPVGPGSEISEIDTVTDESVSGAPGVVNSGYTIDVVHYGLRDKGSVSYKGVHPSKELPKGNIIVYQGEWDFTSNAGAAGRVGVTSADAKERTYISKFNIDFSNKKLNGQLLTKTKENQEKLRYTVEANISGNRFRGKATATDKTDPILGKDSEHLEGGLYGPKSEELAGKFVAHDKSLFAVFSGKRGNDVL
notes: also called engineered TbpB N-lobe H87; not shown: N-terminal polyhistidine region of the custom expression vector; TEV (tobacco etch virus) cleavage site
B3: Y174A mutant of A. pleuropneumoniae TbpB 26-528 derived from strain H87 (receptor)
chain: VNYTDEETQKRKKEELDKLMEPALGYVTKIPVNIPSVRKTEISEIDTVTDESLSLVPNEDKLRTIANENYGSVVTKSGSNTMNFVRSGYTIDVVHYGLRDKGYVYYKGVHPSKELPKGNIIVYQGEWDFTSNADLDAKRPNYNPEFNGAGAGQRVGVTSADAKERTYISKFNIDFSNKKLNGQLLTKTKENQEKLRYTVEANISGNRFRGKATATDKTDPILGKDSEHLEGGLYGPKSEELAGKFVAHDKSLFAVFSGKRGNDVLETVKIIDASKIDLTTFESSELNNFGNANVLIIDGQKIDLAGADFKNRKTVDINGKTMVAIACCSNLEYMKFGQLWQKEGEQTKDNSLFLQGERTATDKIPVGGNYKYVGTWDALVSKGTNWVAEADNNRESGYRSEFDVNFGDKKVSGKLFDKGGIVPVFMINADIKGNGFTGTANTTDTGFALDSGSSQHGNAVFSDIKVNGGFYGPTAGELGGQFHHKSDNGSVGAVFG
B4: F171A mutant of ApH49 TbpB 20-528 (receptor)
chain: GVSKEEYKDVETAKKEKEQLGELMEPALGYVVKVPVSSFENKKVDISDIEVITNGNLDDVPYKANSSKYNYPDIKTKDSSLQYVRSGYVIDGEHSGSNEKGYVYYKGNSPAKELPVNQLLTYTGSWDFTSNANLNNEEGRPNYLNDDYYTKAIGKRVGLVSGDAKPAKHKYTSQFEVDFATKKMTGKLSDKEKTIYTVNADIRGNRFTGAATASDKNKGKGESYNFFSADSQSLEGGFYGPKAEEMAGKFVANDKSLFAVFSAKHNGSNVDTVRIIDASKIDLTNFSISELNNFGDASVLIIDGKKIKLAGSGFTNKHTIEINGKTMVAVACCSNLEYMKFGQLWQQAEGGKPENNSLFLQGERTATDKMPKGGNYKYIGTWDAQVSKENNWVATADDDRKAGYRTEFDVDFGNKNLSGKLFDKNGVNPVFTVDAKIDGNGFTGKAKTSDAGFALDSGSSRYENVKFNDVAVSGGFYGPTAAELGGQFHHKSENGSVGAVFG
notes: also called F171A mutation in the TbpB from A. pleuropneumoniae strain H49
B5: A. suis TbpB 27-577 (amino acid 27-577) derived from strain H57, purified recombinant truncated protein (receptor)
chain: SYQDEETKKKTKEELDKLMEPTLGVEAKIPRRNRALFDKEGNRKATPDTTDELSEAQIMAIWNENIDEIPHLKELNDKTTSGLIYHSHDGKQEDKKRNLQYVRSGYVFDESYSEIVKNKNGVPYIFKNGIDGYIYYLGTSPSKELPKGNKVTYKGTWDFTSDVKTSYELSGFSDAGNGKNVAATSISDNVNRDHKVGEKLGDNEVKGVAHSSEFAVDFDNKKLTGSLYRNGYINRNKAQEVTKRYSIEADITGNRFTGKAKAEKAGDPIFTDSNYLEGGFYGPKAEEMAGKFFTNNKSLFAVFAAKSENGETTTERIIDATKIDLTQFNAKELNNFGDASVLIIDGQKIDLAGVNFKNSKTVEINGKTMVAVACCSNLEYMKFGQLWQKEGKQQVKDNSLFLQGERTATDKMPAGGNYKYVGTWDALVSKGTNWIAEADNNRESGYRTEFDVNFSDKKVNGKLFDKGGVNPVFTVDATINGNGFIGSAKTSDSGFALDAGSSQHGNAVFSDIKVNGGFYGPTAGELGGQFHHKSDNGSVGAVFGA
notes: also called AsH57 TbpB; TbpB from Actinobacillus suis
B6: engineered (loop-reduced) TbpB N-lobe from Actinobacillus pleuropneumoniae strain H49, fusion protein with N-terminal maltose binding protein and polyhistidine … (receptor)
chain: GSGVSKEEYKDVETAKKEKEQLGELGELMEPALGYVVKVPVSAGKKVDISDIEVITNGNLDDVPYKANSSKYNYPDIKTKDSSLQYVRSGYVISPDGGYVYYKGNSPAKELPVNQLLTYTGSWDFTSNANLNAARPAGAGKRVGLVSGDAKERKYTSQFEVDFATKKMTGKLSDKEKTIYTVNADIRGNRFTGAATASDKNDPILSADSQSLEGGFYGPKAEEMAGKFVANDKSLFAVFSAKHNGSNV
notes: also called engineered TbpB N-lobe H49; modified N-lobe; not shown: N-terminal polyhistidine region of the custom expression vector; TEV (tobacco etch virus) cleavage site
B7: Y167A mutant of H. parasuis TbpB 27-577 derived from the Nagasaki strain Hp5 (receptor)
chain: CSGGKGSFDLEDVQPNKTTGVSKEEYKDVETDKKVKEQLGELMEPALGYVVKVPVSQSGVKRTEISNPEAITDEDLNKIPNYEIIKGVAYPNYGELVDKTAAETMKYVRSGYVIDVYHSGTRDKGYVFYKGITPSKELPQGPALTYQGEWDFTSDANLNNEEGRPTALNDDYYTTWIGKRAGLVSGDAKPSKHKYTSQFKVDFATKKMTGKLSDKEKTIYTVNADIRGNRFTGSATASDKDKGKGASYNFFSVDSQSLEGGFYGPKAEEMAGKFVADDKSLFAVFSAKHNASNVNTVRIIDASKIDLTNFSISELTNFGDASVLIIDGKKMELAGSEFTNKHTIDINGKKMVAVACCSNLEYMKFGQLWQQTEGEKQVKDNSLFLQGERTATDKMPKDGNYKYIGTWDAQVSKENNYWVATADDDRKAGYRTEFDVDFGSKNLSGKLFDKNGVNPVFTVNAKIDGNGFTGEAKTSDAGFVLDPGSLRHDNVKFSDVAVSGGFYGPTAAELGGQFRYQSDNGSVGVGAVFGAKQQVKK
notes: also called Y167A TbpB; Y167A mutant TbpB
B8: W176A mutant of H. parasuis TbpB 27-577 derived from the Nagasaki strain Hp5 (receptor)
chain: B7 chain with Y93A, A167Y, W176A
notes: also called W176A mutation in the TbpB from H. parasuis strain HP5

What was measured:
[1] = biological target: T1, porcine transferrin (porcine, UniProt P09571 1-696); assay: solid-phase (dot) binding assay with HRP-conjugated porcine transferrin; also capture on porcine Tf-Sepharose
T1 construct: also called pTf; porcine Tf
T1 sequence (P09571 whole entry): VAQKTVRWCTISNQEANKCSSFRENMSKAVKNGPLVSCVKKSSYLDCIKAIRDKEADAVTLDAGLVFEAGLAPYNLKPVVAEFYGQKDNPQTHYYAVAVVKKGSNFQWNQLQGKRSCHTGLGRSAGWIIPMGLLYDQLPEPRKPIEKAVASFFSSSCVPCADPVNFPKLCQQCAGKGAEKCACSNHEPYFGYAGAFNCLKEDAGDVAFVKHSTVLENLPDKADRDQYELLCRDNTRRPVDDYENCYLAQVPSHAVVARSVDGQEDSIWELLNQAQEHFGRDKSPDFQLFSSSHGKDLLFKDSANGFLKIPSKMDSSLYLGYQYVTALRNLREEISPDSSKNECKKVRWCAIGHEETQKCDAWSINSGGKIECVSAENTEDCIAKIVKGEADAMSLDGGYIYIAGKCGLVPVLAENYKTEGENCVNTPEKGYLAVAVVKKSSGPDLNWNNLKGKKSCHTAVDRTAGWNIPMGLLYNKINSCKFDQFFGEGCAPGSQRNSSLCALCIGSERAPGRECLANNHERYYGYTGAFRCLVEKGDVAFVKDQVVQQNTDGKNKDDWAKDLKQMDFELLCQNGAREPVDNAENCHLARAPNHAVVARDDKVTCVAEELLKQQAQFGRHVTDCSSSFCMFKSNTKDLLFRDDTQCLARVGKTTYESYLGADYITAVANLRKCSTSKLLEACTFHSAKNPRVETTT

[2] = biological target: T1, porcine transferrin; assay: affinity capture from cell lysate on porcine Tf-Sepharose, SDS-PAGE
[3] = biological target: T1, porcine transferrin; assay: isothermal calorimetry, surface plasmon resonance or biolayer interferometry

Row | Binder | fold increase in the affinity constant (Kd) against the native TbpB [3] [fold] | further results
1 | B1 | – | binding result [1]: binds
2 | B2 | – | binding result [2]: no binding
3 | B3 | 100 | –
4 | B4 | 100 | –
5 | B5 | – | Kd [3]: ~120 nM
6 | B6 | – | binding result [2]: no binding
7 | B7 | 100 | –
8 | B8 | 100 | –

— patent US20160303217A1 (ENGINEERED ANTIGENS, published 2016)
